Laboratory results reported in patent US20140255414A1 (PROBIODRUG, published 2014).
Square brackets hold non-standard residues; d marks the D form. pGlu = O=C1CC[C@@H](C(=O)O)N1; PEG = not defined here

Key:
[1] = target: T1, Aβ(pE11-18)-PEG peptide (reading uncertain); assay: ITC at 20 °C, peptide titrated into antibody eluted with KSCN gradient
T1 construct: The PEG attachment is not described further
T1 peptide: [pGlu]VHHQKLV-{PEG}
Method: The measurement of heat of reaction was performed at 20° C. Furthermore the heat of reaction was determined which was only generated by dilution of the antigen through the titration into ITC buffer (pH=7.1). Therefore the antigen was injected into the sample cell filled with ITC buffer. The heat of reaction which was generated during the titration of the antigen to the antibody was corrected about this value. The analysis of raw data and the determination of the association constant (KA), reaction stoichiometry (n), binding enthalpy (ΔH) and entropy (ΔS) was performed with Origin Software of MicroCal.
To characterize the binding of anti Aβ11(pE) antibody at the Aβ(pE11-18)-PEG peptide the method of Isothermal Titration calorimetry (ITC) was used (see section 1.3.4). The antibody which was eluted from protein G column with KSCN-gradient (pH 7.0) and 0.1 M glycine-HCl (pH 2.7) was analyzed. With ITC the reaction stoichiometry (N), association constant (KA), binding enthalpy (ΔH) as well as the entropy (ΔS) were determined. The peptide was titrated to anti Aβ11(pE) antibody in the ITC MicroCalorimeter as described in section 1.3.4.2. […] The reaction partners interact and heat is released or absorbed in direct proportion to the amount of binding events. Each injection of antigen leads to change of temperature. To compensate the temperature difference between the sample and reference cell the addition or removal of heat to the sample cell occurs and serves as measurement signal.
At first the heat of the Aβ(pE11-18)-PEG dilution in ITC buffer was determined (see FIG. 16, upper trace). […] Afterwards the peptide Aβ(pE11-18)-PEG was titrated to anti Aβ11(pE) antibody in the sample cell (see FIG. 16, lower trace). The total heat release after each injection was determined by integration of the area between each peak and baseline. Then the heat of dilution (see FIG. 16, upper trace) was subtracted from the total heat release of each injection.

[2] = target: T2, AβpE(3-40) peptide (N-terminal pyroglutamate (Aβ position 3)); assay: SPR, 1 µg/ml antibody over immobilized AβpE(3-40) against immobilized AβpE(11-30)
T2 construct: Immobilized on a CM5 chip at 1830 RU; also called Aβ3(pE); Aβ N3pE-40
T2 sequence (peptide, as listed by the source): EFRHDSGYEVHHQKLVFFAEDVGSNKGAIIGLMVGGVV

[3] = target: T1, Aβ(pE11-18)-PEG peptide; assay: ITC at 20 °C, peptide titrated into antibody eluted with KSCN gradient (KD=1/KA)
Method: (§1) For the ITC experiment, the peptide Aβ(pE11-18)-PEG was used because the hydrophilic PEG group imparts hydrophilic properties and so it was possible to dissolve the peptide directly in ITC buffer. Former experiments with Aβ(pE11-20) could only be performed with 1-2% DMSO, due to the strong hydrophobicity of the peptide it was necessary to dissolve it with DMSO which could have an effect on the ITC binding properties. At first the antibody was dialyzed against ITC buffer (150 mM NaCl, 25 mM Na₂HPO₄, 25 mM KH₂PO₄, 1 mM EDTA, pH=7.1) over night at 4° C. The lyophilised peptide, stored at −20° C., was dissolved in identical ITC buffer pH=7.1 which was used for antibody dialysis. Both antibody and antigen must be in identical solutions, otherwise large heats of dilution will mask the desired observation. Before the ITC experiment, the concentration of antibody was determined by UV/VIS spectroscopy (see section 1.3.1). […] Furthermore the heat of reaction was determined which was only generated by dilution of the antigen through the titration into ITC buffer (pH=7.1). […]
(§2) To characterize the binding of anti Aβ11(pE) antibody at the Aβ(pE11-18)-PEG peptide the method of Isothermal Titration calorimetry (ITC) was used (see section 1.3.4). The antibody which was eluted from protein G column with KSCN-gradient (pH 7.0) and 0.1 M glycine-HCl (pH 2.7) was analyzed.

[4] = target: T1, Aβ(pE11-18)-PEG peptide; assay: ITC at 20 °C, peptide titrated into antibody eluted with 0.1 M glycine-HCl pH 2.7 (KD=1/KA)
Method: as §1, §2

[5] = target: T3, Aβ(pE11-20)-biotin; assay: ELISA: 200 ng/ml Aβ(pE11-20)-biotin on streptavidin plate, antibody 55-3500 pg/ml, detection with rabbit anti-mouse Ig's HRP, absorption 450/540 nm
T3 construct: Immobilized on streptavidin-coated microplates in the auto-Ig-ELISA
T3 peptide: [pGlu]VHHQKLVFF-biotin
Method: Immobilization of 200 ng/ml Aβ(pE11-20)-biotin at streptavidin coated microplate (2 h, at RT). Blocking with 200 μl ELISA-Blocker (−T) 1 h at RT and followed by wash cycle (3×300 μl/well wash buffer). Standard anti Aβ11(pE) antibody (clone 13) was diluted in ELISA-Blocker (+T) in radix division from 3500 pg/ml down to 55 pg/ml and incubated 2 h at 4° C. A wash cycle followed and detection with polyclonal rabbit anti-mouse Ig's HRP 1 h at 4° C. After wash cycle TMB/H₂O₂ were added, incubated 30 min at RT (dark) and enzyme reaction was stopped with 1 M H₂SO₄. Absorption was measured at 450/540 nm at TECAN Sunrise.

- -TΔS [1]: -1.27 kcal/mol
- Ka [1]: 1.27e+07 M⁻¹
- Stoichiometry (N) [1]: 1.88
- cross reactivity relative to AβpE(11-30) [2]: 4 magnitudes lower
- Kd [3]: 78.7 nM
- Kd [4]: 105 nM
- binding result [5]: binds
B1: monoclonal mouse anti Aβ11(pE) antibody Aβ 13-11-6 (clone 13), Deposit No. DSM ACC 3100 (antibody, V domains shown)
VH: QVQLQQPGTELVKPGASVKLSCKASGFTFTSYWMHWVRQRPGQGLEWIGEINPSNGRTNYNEKFKSKATLTVDKSSSTAYMQLSSLTSEDSEVYYCARGDLAWDWSAYWGQGTLVTVSA
VL: DIVMSQSPSSLAVSAGEKVTMSCKSSQSLFYSRTRKNYLAWYQQKPGQSPKLLIYWASTRESGVPDRFTGSGSGTDFTLTISSVQAEDLAVYYCKQSYNLWSFGGGTKLEIKR
notes: The KSCN-eluted and glycine-HCl-eluted preparations are the same molecule; also called pEVHH-59025 13-11-6; mAb mouse anti Aβ11(pE)
